Data published in PMC4132713.
pKd: −log10 of the molar value. Values joined by “and” are separate entries in the source; they are usually repeats but may differ in a detail not shown here. Identical values can stand only once.

How the values were obtained:
Settings in all cases: SPR: TBS (50 mM Tris-HCl, 150 mM NaCl, pH 6.8) or TBS-KCl (150 mM KCl instead of NaCl), 1-32 nM DARPin on 300-500 RU biotinylated DNA; ELISA: 100 nM …
[1] = tested on: DARPin 1C11 (synthetic construct); experiment: SPR
[2] = tested on: DARPin 1C7 (synthetic construct); experiment: SPR
[3] = tested on: DARPin 1G11 (synthetic construct); experiment: SPR
[4] = tested on: DARPin 1G2 (synthetic construct); experiment: SPR
[5] = tested on: DARPin 1C11 (synthetic construct); experiment: SPR; remark: listed apart in the source
[6] = tested on: DARPin 1C7 (synthetic construct); experiment: SPR; remark: listed apart in the source
[7] = tested on: DARPin 1G2 (synthetic construct); experiment: SPR; remark: listed apart in the source
[8] = tested on: DARPin 2G10 (synthetic construct); experiment: SPR
[9] = tested on: DARPin 2E4 (synthetic construct); experiment: SPR
[10] = tested on: DARPin 2G10 (synthetic construct); experiment: SPR; remark: listed apart in the source
[11] = tested on: DARPin 2E4 (synthetic construct); experiment: SPR; remark: listed apart in the source
[12] = tested on: DARPin 1C6 (synthetic construct); experiment: SPR
[13] = tested on: DARPin 1H4 (synthetic construct); experiment: SPR
[14] = tested on: DARPin 2C10 (synthetic construct); experiment: SPR
[15] = tested on: DARPin 2D10 (synthetic construct); experiment: SPR
[16] = tested on: DARPin 2G7 (synthetic construct); experiment: SPR
[17] = tested on: DARPin 1H4 (synthetic construct); experiment: SPR; remark: listed apart in the source
[18] = tested on: DARPin 2C10 (synthetic construct); experiment: SPR; remark: listed apart in the source
[19] = tested on: DARPin 2D10 (synthetic construct); experiment: SPR; remark: listed apart in the source
[20] = tested on: DARPin 2G7 (synthetic construct); experiment: SPR; remark: listed apart in the source
[21] = tested on: DARPin 1C11 (synthetic construct); experiment: competition SPR
[22] = tested on: DARPin 1C6 (synthetic construct); experiment: competition SPR
[23] = tested on: DARPin 1C7 (synthetic construct); experiment: competition SPR
[24] = tested on: DARPin 1G2 (synthetic construct); experiment: competition SPR
[25] = tested on: DARPin 1H4 (synthetic construct); experiment: competition SPR
[26] = tested on: DARPin 2C10 (synthetic construct); experiment: competition SPR
[27] = tested on: DARPin 2D10 (synthetic construct); experiment: competition SPR
[28] = tested on: DARPin 2G7 (synthetic construct); experiment: competition SPR
[29] = tested on: DARPin 1C11 (synthetic construct); experiment: competition SPR; remark: listed apart in the source
[30] = tested on: DARPin 1C7 (synthetic construct); experiment: competition SPR; remark: listed apart in the source
[31] = tested on: DARPin 1G2 (synthetic construct); experiment: competition SPR; remark: listed apart in the source
[32] = tested on: DARPin 1H4 (synthetic construct); experiment: competition SPR; remark: listed apart in the source
[33] = tested on: DARPin 2C10 (synthetic construct); experiment: competition SPR; remark: listed apart in the source
[34] = tested on: DARPin 2D10 (synthetic construct); experiment: competition SPR; remark: listed apart in the source
[35] = tested on: DARPin 2E4 (synthetic construct); experiment: competition SPR
[36] = tested on: DARPin 2G7 (synthetic construct); experiment: competition SPR; remark: listed apart in the source

## CAGGGGTGTGGGGACAGGGGTGTGGGGAC [ILPR]
[1]
  pKd: 7.37
[2]
  pKd: 7.48
[3]
  pKd: 7.36
[4]
  pKd: 7.57
[5]
  pKd: 7.92 and 8.40
[6]
  pKd: 7.68 and 7.85
[7]
  pKd: 8.03 and 8.19
[8]
  pKd: 7.66 and 7.72

## TGAGGGTGGGTAGGGTGGGTAA [c-MYC]
[1]
  pKd: 7.31
[2]
  pKd: 7.09
[3]
  pKd: 7.72
[4]
  pKd: 7.37
[9]
  pKd: 7.19
[10]
  pKd: 7.05
[5]
  pKd: 7.77 and 8.17
[7]
  pKd: 7.80 and 7.85
[11]
  pKd: 7.55 and 7.72
[8]
  pKd: 7.00 and 7.82

## TTAGGGTTAGGGTTAGGGTTAGGG [tel (biotinylated)]
[1]
  pKd: 7.28
[12]
  pKd: 7.80
[2]
  pKd: 7.43
[3]
  pKd: 7.14
[4]
  pKd: 7.28
[13]
  pKd: 7.21
[14]
  pKd: 7.32
[15]
  pKd: 7.47
[16]
  pKd: 7.70
[5]
  pKd: 7.96 and 8.05
[6]
  pKd: 7.82 and 8.48
[7]
  pKd: 8.10 and 8.48
[17]
  pKd: 7.82 and 7.85
[18]
  pKd: 7.70 and 7.46
[19]
  pKd: 7.74 and 7.66
[11]
  pKd: 8.34 and 7.38
[8]
  pKd: 7.19 and 7.82
[20]
  pKd: 8.00 and 8.26

## TTAGGGTTAGGGTTAGGGTTAGGG [tel (non-biotinylated)]
[21]
  pKd: 7.00
[22]
  pKd: 7.25
[23]
  pKd: 6.96
[24]
  pKd: 7.16
[25]
  pKd: 7.09
[26]
  pKd: 7.17
[27]
  pKd: 6.96
[28]
  pKd: 7.49
[29]
  pKd: 7.14
[30]
  pKd: 6.80
[31]
  pKd: 8.44
[32]
  pKd: 7.72
[33]
  pKd: 6.80
[34]
  pKd: 6.80
[35]
  pKd: 6.92
[36]
  pKd: 8.10
